Results: publication PMC11863153, “Mechanistic Insights Into Oxidative Response of Heat Shock Factor 1 Condensates” (JACS Au, 2025)

B1: Heat shock factor 1 (Hsf1) wild-type [human] / itself (parent)
chain: MDLPVGPGAAGPSNVPAFLTKLWTLVSDPDTDALICWSPSGNSFHVFDQGQFAKEVLPKYFKHNNMASFVRQLNMYGFRKVVHIEQGGLVKPERDDTEFQHPCFLRGQEQLLENIKRKVTSVSTLKSEDIKIRQDSVTKLLTDVQLMKGKQECMDSKLLAMKHENEALWREVASLRQKHAQQQKVVNKLIQFLISLVQSNRILGVKRKIPLMLNDSGSAHSMPKYSRQFSLEHVHGSGPYSAPSPAYSSSSLYAPDAVASSGPIISDITELAPASPMASPGGSIDERPLSSSPLVRVKEEPPSPPQSPRVEEASPGRPSSVDTLLSPTALIDSILRESEPAPASVTALTDARGHTDTEGRPPSPPPTSTPEKCLSVACLDKNELSDHLDAMDSNLDNLQTMLSSHGFSVDTSALLDLFSPSVTVPDMSLPDLDSSLASIQELLSPQEPPRPPEAENSSPDSGKQLVHYTAQPLFLLDPGSVDTGSNDLPVLFELGEGSYFSEGDGFAEDPTISLLTGSEPPKAKDPTVS

Variants of: B1
Test: nonreducing SDS-PAGE, quantification of higher-order oligomer bands
Conditions: with itself; purified Hsf1 mutants; means ± s.d. of three independent experiments; parent: 1; read off a plot

ratio to parent | Variant
1.1 AU | MDLPVGPGAAGPSNVPAFLTKLWTLVSDPDTDALISWSPSGNSFHVFDQGQFAKEVLPKYFKHNNMASFVRQLNMYGFRKVVHIEQGGLVKPERDDTEFQHPSFLRGQEQLLENIKRKVTSVSTLKSEDIKIRQDSVTKLLTDVQLMKGKQECMDSKLLAMKHENEALWREVASLRQKHAQQQKVVNKLIQFLISLVQSNRILGVKRKIPLMLNDSGSAHSMPKYSRQFSLEHVHGSGPYSAPSPAYSSSSLYAPDAVASSGPIISDITELAPASPMASPGGSIDERPLSSSPLVRVKEEPPSPPQSPRVEEASPGRPSSVDTLLSPTALIDSILRESEPAPASVTALTDARGHTDTEGRPPSPPPTSTPEKCLSVACLDKNELSDHLDAMDSNLDNLQTMLSSHGFSVDTSALLDLFSPSVTVPDMSLPDLDSSLASIQELLSPQEPPRPPEAENSSPDSGKQLVHYTAQPLFLLDPGSVDTGSNDLPVLFELGEGSYFSEGDGFAEDPTISLLTGSEPPKAKDPTVS [chain 1 C36S C103S]
1.4 AU | MDLPVGPGAAGPSNVPAFLTKLWTLVSDPDTDALICWSPSGNSFHVFDQGQFAKEVLPKYFKHNNMASFVRQLNMYGFRKVVHIEQGGLVKPERDDTEFQHPCFLRGQEQLLENIKRKVTSVSTLKSEDIKIRQDSVTKLLTDVQLMKGKQECMDSKLLAMKHENEALWREVASLRQKHAQQQKVVNKLIQFLISLVQSNRILGVKRKIPLMLNDSGSAHSMPKYSRQFSLEHVHGSGPYSAPSPAYSSSSLYAPDAVASSGPIISDITELAPASPMASPGGSIDERPLSSSPLVRVKEEPPSPPQSPRVEEASPGRPSSVDTLLSPTALIDSILRESEPAPASVTALTDARGHTDTEGRPPSPPPTSTPEKSLSVASLDKNELSDHLDAMDSNLDNLQTMLSSHGFSVDTSALLDLFSPSVTVPDMSLPDLDSSLASIQELLSPQEPPRPPEAENSSPDSGKQLVHYTAQPLFLLDPGSVDTGSNDLPVLFELGEGSYFSEGDGFAEDPTISLLTGSEPPKAKDPTVS [chain 1 C373S C378S]
0.46 AU | MDLPVGPGAAGPSNVPAFLTKLWTLVSDPDTDALICWSPSGNSFHVFDQGQFAKEVLPKYFKHNNMASFVRQLNMYGFRKVVHIEQGGLVKPERDDTEFQHPCFLRGQEQLLENIKRKVTSVSTLKSEDIKIRQDSVTKLLTDVQLMKGKQESMDSKLLAMKHENEALWREVASLRQKHAQQQKVVNKLIQFLISLVQSNRILGVKRKIPLMLNDSGSAHSMPKYSRQFSLEHVHGSGPYSAPSPAYSSSSLYAPDAVASSGPIISDITELAPASPMASPGGSIDERPLSSSPLVRVKEEPPSPPQSPRVEEASPGRPSSVDTLLSPTALIDSILRESEPAPASVTALTDARGHTDTEGRPPSPPPTSTPEKCLSVACLDKNELSDHLDAMDSNLDNLQTMLSSHGFSVDTSALLDLFSPSVTVPDMSLPDLDSSLASIQELLSPQEPPRPPEAENSSPDSGKQLVHYTAQPLFLLDPGSVDTGSNDLPVLFELGEGSYFSEGDGFAEDPTISLLTGSEPPKAKDPTVS [chain 1 C153S]
